Where a chain is given by its changes, count along the chain named. Numbers in names are those of the source.
B1: IL-5Rα×CD3ε-Diabody-Fc (bispecific antibody)
chain 1: DIQMTQSPSTLSASVGDRVTITCKASQNVGTAVAWYQQKPGKAPKLLIYWASTRHTGVPDRFSGSGSGTDFTLTISSLQPDDFATYYCQQFGRYPYTFGSGTKVEVKGGGSGGGGEVQLVESGGGLVQPKGSLKLSCAASGFTFNTYAMNWVRQAPGKGLEWVARIRSKYNNYATYYADSVKDRFTISRDDSQSILYLQMNNLKTEDTAMYYCVRHGNFGNSYVSWFAYWGQGTLVTVSSGCPPCPAPEFEGGPSVFLFPPKPKDTLMISRTPEVTCVVVAVSHEDPEVKFNWYVDGVEVHNAKTKPREEQYNSTYRVVSVLTVLHQDWLNGKEYKCKVSNKALPAPIEKTISKAKGQPREPQVYTLPPSRDELTENQVSLTCLVKGFYPSDIAVEWESNGQPENNYKTTPPVLDSDGSFFLYSWLTVDKSRWQQGNVFSCSVMHEALHNHYTQKSLSLSPGK
chain 2: QAVVTQESALTTSPGETVTLTCRSSTGAVTTSNYANWVQEKPDHLFTGLIGGTNKRAPGVPARFSGSLIGDKAALTITGAQTEDEAIYFCALWYSNLWVFGGGTKLTVLGGGSGGGGQVQLVQSGAEVKKPGSSVKVSCKASGYTFTSYWINWVRQAPGQGLEWIGHIYPNKNENYYNHKFKDKATLTVDKSTNTAYMELSSLRSEDTAVYYCTREFYGRQYYQAMDYWGQGTTLTVSSGCPPCPAPEFEGGPSVFLFPPKPKDTLMISRTPEVTCVVVAVSHEDPEVKFNWYVDGVEVHNAKTKPREEQYNSTYRVVSVLTVLHQDWLNGKEYKCKVSNKALPAPIEKTISKAKGQPREPRVYTLPPSRDELTKNQVSLTCLVKGFYPSDIAVEWESNGQPENNYKTTPPVLVSDGSFTLYSKLTVDKSRWQQGNVFSCSVMHEALHNHYTQKSLSLSPGK
notes: Built from 5R65.7 (anti-IL-5Rα) and humanized SP34 (anti-CD3ε); Heterodimeric IgG1 Fc with EW-RVT and L234F/L235E/D265A (FEA) mutations
B2: IL-5Rα×CD3ε-scFv(L)/scFv-Fc (bispecific antibody, human IgG1)
chain 1: QAVVTQESALTTSPGETVTLTCRSSTGAVTTSNYANWVQEKPDHLFTGLIGGTNKRAPGVPARFSGSLIGDKAALTITGAQTEDEAIYFCALWYSNLWVFGGGTKLTVLGGGGSGGGGSGGGGSEVQLVESGGGLVQPKGSLKLSCAASGFTFNTYAMNWVRQAPGKGLEWVARIRSKYNNYATYYADSVKDRFTISRDDSQSILYLQMNNLKTEDTAMYYCVRHGNFGNSYVSWFAYWGQGTLVTVSSEPKSCDKTHTCPPCPAPEFEGGPSVFLFPPKPKDTLMISRTPEVTCVVVAVSHEDPEVKFNWYVDGVEVHNAKTKPREEQYNSTYRVVSVLTVLHQDWLNGKEYKCKVSNKALPAPIEKTISKAKGQPREPQVYTLPPSRDELTENQVSLTCLVKGFYPSDIAVEWESNGQPENNYKTTPPVLDSDGSFFLYSWLTVDKSRWQQGNVFSCSVMHEALHNHYTQKSLSLSPGK
chain 2: DIQMTQSPSTLSASVGDRVTITCKASQNVGTAVAWYQQKPGKAPKLLIYWASTRHTGVPDRFSGSGSGTDFTLTISSLQPDDFATYYCQQFGRYPYTFGSGTKVEVKGGGGSGGGGSGGGGSQVQLVQSGAEVKKPGSSVKVSCKASGYTFTSYWINWVRQAPGQGLEWIGHIYPNKNENYYNHKFKDKATLTVDKSTNTAYMELSSLRSEDTAVYYCTREFYGRQYYQAMDYWGQGTTLTVSSEPKSCDKTHTCPPCPAPEFEGGPSVFLFPPKPKDTLMISRTPEVTCVVVAVSHEDPEVKFNWYVDGVEVHNAKTKPREEQYNSTYRVVSVLTVLHQDWLNGKEYKCKVSNKALPAPIEKTISKAKGQPREPRVYTLPPSRDELTKNQVSLTCLVKGFYPSDIAVEWESNGQPENNYKTTPPVLVSDGSFTLYSKLTVDKSRWQQGNVFSCSVMHEALHNHYTQKSLSLSPGK
notes: Built from 5R65.7 and humanized SP34 scFvs with (G4S)3 linkers and an IgG1 hinge; Heterodimeric IgG1 Fc with EW-RVT and FEA mutations; also called IL-5Rα×CD3α-scFv(L)/scFv-Fc
B3: IL-5Rα(5R65)×CD3ε-scFv(L)/scFv-Fc (bispecific antibody)
chain 1: B2 chain 2 with E221D, F222Y, Q226S, Q229Y
chain 2: B2 chain 1
notes: Control in the scFv(L)/scFv-Fc format, built with 5R65, the parent antibody of 5R65.7; also called IL-5Rα(5R65)×CD3α-scFv(L)/scFv-Fc
B4: IL-5Rα×CD3ε-IgG analog (bispecific antibody)
heavy 1: QVQLVQSGAEVKKPGSSVKVSCKASGYTFTSYWINWVRQAPGQGLEWIGHIYPNKNENYYNHKFKDKATLTVDKSTNTAYMELSSLRSEDTAVYYCTREFYGRQYYQAMDYWGQGTTLTVSSASTKGPSVFPLAPSSKSTSGGTAALGCLVKDYFPEPVTVSWNSGALTSGVHTFPAVLQSSGLYSLSSVVTVPSSSLGTQTYICNVNHKPSNTKVDKKVEPKSCDKTHTCPPCPAPEFEGGPSVFLFPPKPKDTLMISRTPEVTCVVVAVSHEDPEVKFNWYVDGVEVHNAKTKPREEQYNSTYRVVSVLTVLHQDWLNGKEYKCKVSNKALPAPIEKTISKAKGQPREPRVYTLPPSRDELTKNQVSLTCLVKGFYPSDIAVEWESNGQPENNYKTTPPVLVSDGSFTLYSKLTVDKSRWQQGNVFSCSVMHEALHNHYTQKSLSLSPGK
light: DIQMTQSPSTLSASVGDRVTITCKASQNVGTAVAWYQQKPGKAPKLLIYWASTRHTGVPDRFSGSGSGTDFTLTISSLQPDDFATYYCQQFGRYPYTFGSGTKVEVKRTVAAPSVFIFPPSDEQLKSGTASVKCLLNNFYPREAKVQWKVDNALQSGNSQESVTEQDSKDSTYSLSSTLTLSKADYEKHKVYACEVTHQGLSSPVTKSFNRGEC
heavy 2: not shown
chain: QAVVTQESALTTSPGETVTLTCRSSTGAVTTSNYANWVQEKPDHLFTGLIGGTNKRAPGVPARFSGSLIGDKAALTITGAQTEDEAIYFCALWYSNLWVFGGGTKLTVLRTVAAPSVFIFPPSDEQLKSGTASVECLLNNFYPREAKVQWKVDNALQSGNSQESVTEQDSKDSTYSLSSTLTLSKADYEKHKVYACEVTHQGLSSPVTKSFNRGEC
notes: Four-chain molecule: SP34 heavy and light chains and 5R65.7 heavy and light chains, with complementary CH1/CL mutations, EW-RVT and FEA
B5: IL-5Rα×CD3ε-BiTE(L)/scFv-Fc (bispecific antibody, human IgG1)
chain 1: DIQMTQSPSTLSASVGDRVTITCKASQNVGTAVAWYQQKPGKAPKLLIYWASTRHTGVPDRFSGSGSGTDFTLTISSLQPDDFATYYCQQFGRYPYTFGSGTKVEVKGGGGSGGGGSGGGGSQVQLVQSGAEVKKPGSSVKVSCKASGYTFTSYWINWVRQAPGQGLEWIGHIYPNKNENYYNHKFKDKATLTVDKSTNTAYMELSSLRSEDTAVYYCTREFYGRQYYQAMDYWGQGTTLTVSSGGGGSQAVVTQESALTTSPGETVTLTCRSSTGAVTTSNYANWVQEKPDHLFTGLIGGTNKRAPGVPARFSGSLIGDKAALTITGAQTEDEAIYFCALWYSNLWVFGGGTKLTVLGGGGSGGGGSGGGGSEVQLVESGGGLVQPKGSLKLSCAASGFTFNTYAMNWVRQAPGKGLEWVARIRSKYNNYATYYADSVKDRFTISRDDSQSILYLQMNNLKTEDTAMYYCVRHGNFGNSYVSWFAYWGQGTLVTVSSEPKSCDKTHTCPPCPAPEFEGGPSVFLFPPKPKDTLMISRTPEVTCVVVAVSHEDPEVKFNWYVDGVEVHNAKTKPREEQYNSTYRVVSVLTVLHQDWLNGKEYKCKVSNKALPAPIEKTISKAKGQPREPQVYTLPPSRDELTENQVSLTCLVKGFYPSDIAVEWESNGQPENNYKTTPPVLDSDGSFFLYSWLTVDKSRWQQGNVFSCSVMHEALHNHYTQKSLSLSPGK
chain 2: QVQLVQSGAEVKKPGSSVKVSCKASGYTFTSYWINWVRQAPGQGLEWIGHIYPNKNENYYNHKFKDKATLTVDKSTNTAYMELSSLRSEDTAVYYCTREFYGRQYYQAMDYWGQGTTLTVSSGGGGSGGGGSGGGGSDIQMTQSPSTLSASVGDRVTITCKASQNVGTAVAWYQQKPGKAPKLLIYWASTRHTGVPDRFSGSGSGTDFTLTISSLQPDDFATYYCQQFGRYPYTFGSGTKVEVKEPKSCDKTHTCPPCPAPEFEGGPSVFLFPPKPKDTLMISRTPEVTCVVVAVSHEDPEVKFNWYVDGVEVHNAKTKPREEQYNSTYRVVSVLTVLHQDWLNGKEYKCKVSNKALPAPIEKTISKAKGQPREPRVYTLPPSRDELTKNQVSLTCLVKGFYPSDIAVEWESNGQPENNYKTTPPVLVSDGSFTLYSKLTVDKSRWQQGNVFSCSVMHEALHNHYTQKSLSLSPGK
notes: Heterodimeric IgG1 Fc with EW-RVT and FEA mutations

Key:
[1] = target: T1, CD3ε, commercially available (sinobiological, 10977-H08H) (UniProt P07766 23-126); test: BLI (Octet QKe), antibody captured on AHC sensor, antigen 125-4,000 nM, 1:1 model
T1 construct: Bought protein
T1 sequence (P07766 23-126 limits assumed): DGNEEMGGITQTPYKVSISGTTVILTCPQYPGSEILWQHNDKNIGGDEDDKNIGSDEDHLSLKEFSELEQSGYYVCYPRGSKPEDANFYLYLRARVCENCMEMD

[2] = target: T2, hIL-5Rα, purified recombinant protein (human, UniProt Q01344 21-342, limits assumed); test: as above
T2 construct: Soluble antigen of the Octet experiments
T2 sequence (looked up): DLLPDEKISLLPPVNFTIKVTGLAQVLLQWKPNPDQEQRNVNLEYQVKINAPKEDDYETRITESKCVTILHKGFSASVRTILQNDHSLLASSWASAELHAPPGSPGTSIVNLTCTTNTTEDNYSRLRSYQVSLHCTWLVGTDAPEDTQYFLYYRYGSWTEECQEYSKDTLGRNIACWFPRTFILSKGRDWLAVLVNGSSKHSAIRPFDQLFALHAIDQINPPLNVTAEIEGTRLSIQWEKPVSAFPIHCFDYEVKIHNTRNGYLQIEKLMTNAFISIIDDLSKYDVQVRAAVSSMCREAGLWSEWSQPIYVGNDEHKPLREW

[3] = target: human CD3ε on activated PBMC (human, UniProt P07766 23-207); test: cell-based or functional assay
Chain of human CD3ε on activated PBMC (P07766 23-207): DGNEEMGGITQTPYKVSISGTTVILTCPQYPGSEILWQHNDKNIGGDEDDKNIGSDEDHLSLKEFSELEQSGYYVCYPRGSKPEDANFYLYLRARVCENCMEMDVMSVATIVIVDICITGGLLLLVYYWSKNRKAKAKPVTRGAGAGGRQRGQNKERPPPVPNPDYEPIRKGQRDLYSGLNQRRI

[4] = target: T3, human IL-5Rα expressed on the K562/IL-5Rα cell line (human, UniProt Q01344 21-420); test: cell-based or functional assay
T3 sequence (looked up): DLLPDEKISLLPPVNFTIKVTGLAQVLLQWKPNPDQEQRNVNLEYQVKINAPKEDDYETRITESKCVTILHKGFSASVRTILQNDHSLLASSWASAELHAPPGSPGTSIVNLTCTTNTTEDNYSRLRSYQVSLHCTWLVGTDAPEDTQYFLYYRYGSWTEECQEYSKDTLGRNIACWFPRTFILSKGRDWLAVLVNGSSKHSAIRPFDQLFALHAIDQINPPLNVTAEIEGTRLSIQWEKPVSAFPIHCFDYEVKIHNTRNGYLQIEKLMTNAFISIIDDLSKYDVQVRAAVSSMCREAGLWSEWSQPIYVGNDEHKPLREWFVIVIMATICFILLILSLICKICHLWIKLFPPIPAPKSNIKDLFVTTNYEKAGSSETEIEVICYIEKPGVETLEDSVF

[5] = target: T2, hIL-5Rα, purified recombinant protein; test: BLI (Octet QKe), ratio of the KD values of Table 2
[6] = target: T3, human IL-5Rα expressed on the …; test: flow cytometry on K562/IL-5Rα cells, 50 nM antibody

Binder | Kd [1] [nM] | koff [1] [s⁻¹] | kon [1] [M⁻¹ s⁻¹] | Kd [2] [nM] | koff [2] [s⁻¹] | kon [2] [M⁻¹ s⁻¹] | IFN-γ EC50 (pM), ELISA of supernatant after 24 h co-culture of activated PBMC and K562/IL-5Rα [3] [pM] | 24hr EC50 of T cell-mediated cytotoxicity (LDH release) against K562/IL-5Rα, activated PBMC, E:T 5:1 [4] [nM] | fold higher binding affinity for IL-5Rα than the Diabody-Fc format [5] [fold] | binding result [6]
B1 | 8.41 | 0.00141 | 167000 | 123 | 0.000306 | 2500 | 2340 | 0.00497 |  | 
B2 | 3.61 | 0.000634 | 176000 | 59.8 | 0.000171 | 2850 | 770 | 0.000857 | ~2.1 | 
B3 |  |  |  |  |  |  |  |  |  | binds
B4 | 1.71 | 0.000474 | 278000 | 30.5 | 0.00011 | 3610 | 2210 | 0.0231 |  | 
B5 | 4.62 | 0.000827 | 179000 | 22.9 | 0.000708 | 30900 | 31000 | 0.0147 |  | 

— EP4707301A1 (AJOU UNIVERSITY INDUSTRY-ACADEMIC COOPERATION FOUNDATION, dated 2026)
